Test results reported in US11591582, “TCRα homing endonuclease variants” (2seventy bio, Inc.).

Target: T1, TCRα2.1 megaTAL (10.5 RVD) (synthetic)
T1 chain: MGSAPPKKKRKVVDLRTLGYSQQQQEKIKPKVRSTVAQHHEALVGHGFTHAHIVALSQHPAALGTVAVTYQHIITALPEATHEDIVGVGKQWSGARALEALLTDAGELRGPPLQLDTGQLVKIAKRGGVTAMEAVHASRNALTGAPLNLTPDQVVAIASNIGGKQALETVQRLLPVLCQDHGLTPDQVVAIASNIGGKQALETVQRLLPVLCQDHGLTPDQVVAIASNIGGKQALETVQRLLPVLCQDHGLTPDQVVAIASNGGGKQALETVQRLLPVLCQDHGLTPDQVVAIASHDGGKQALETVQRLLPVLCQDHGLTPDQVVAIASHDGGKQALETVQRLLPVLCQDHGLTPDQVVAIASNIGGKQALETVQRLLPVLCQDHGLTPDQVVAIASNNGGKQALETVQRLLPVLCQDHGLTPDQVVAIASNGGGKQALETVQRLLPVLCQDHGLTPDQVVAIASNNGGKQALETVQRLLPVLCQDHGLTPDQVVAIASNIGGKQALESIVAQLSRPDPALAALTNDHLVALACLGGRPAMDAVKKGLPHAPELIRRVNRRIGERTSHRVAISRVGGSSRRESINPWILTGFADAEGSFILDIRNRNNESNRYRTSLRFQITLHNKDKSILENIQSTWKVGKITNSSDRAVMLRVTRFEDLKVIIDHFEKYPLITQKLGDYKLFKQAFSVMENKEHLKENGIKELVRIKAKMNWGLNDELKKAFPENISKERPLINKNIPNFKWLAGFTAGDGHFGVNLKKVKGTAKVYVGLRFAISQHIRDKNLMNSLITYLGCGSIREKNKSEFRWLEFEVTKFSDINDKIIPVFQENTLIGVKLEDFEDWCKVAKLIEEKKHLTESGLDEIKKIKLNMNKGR
Assay: cell_activity; primary human T cells, CD3 knockdown
Conditions: tags: TALE fusion
From the text: A single amino acid substitution, E178D, that increased catalytic activity in another I-OnuI variant was inserted at the active site of the TCRα2.0 megaTAL to generate the TCRα2.1 megaTAL (SEQ ID NO: 8). In vitro transcribed mRNA encoding the TCRα2.1 megaTAL (e.g., SEQ ID NO: 15) was electroporated into primary human T cells. The TCRα2.1 megaTAL increased CD3 knockdown 10-fold compared to the TCRα2.0 megaTAL. FIG. 5.

B1: TCRα megaTAL target site (dsDNA)
DNA 1: AAATCCAGTGACAAGTCTGTCTGCCTATTCACCGATTTT
DNA 2: AAAATCGGTGAATAGGCAGACAGACTTGTCACTGGATTT
Q: For B1, which activity is on record?
A: 10 fold vs TCRα2.0 megaTAL
